Measured values as given in the nanobody polyreactivity screen of Harvey et al. (2022).

Experiment: yeast display, Sf9 membrane polyspecificity reagent, FACS + sequencing; frameworks hold sequencing errors
Procedure, shortened: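 Galactose-induced (36–48 hours) yeast carrying a synthetic nanobody display library were exposed to 10% biotinylated, detergent-solubilized Sf9 membrane reagent at 4 °C for 1 hour. FACS followed streptavidin microbead enrichment, using low and high (top ~1%) gates for expression (anti-HA) and reagent binding (streptavidin). Colony PCR, MiSeq 2 × 250 sequencing and CDR-length filtering followed. Labels for polyreactivity reflect the gate of origin.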

Sequence | polyreactivity (PSR sort gate)
QVQLVESGGGLVQAGGSLRLSCAASGRIVRSYTMGWYRLEPGKERELVSDITSGTSTSYADSVKGRFTISRDNAKNTVYLQINSLKPEDTAVYYCNADVSNYFWNWPYQGMDYWGQGTQVTVSS | low polyreactivity
QVQLVESGGGLVQAGGSLRLSCAASGRIVYIYAMGWYRQAPGKERELVAAISSGGTTNYADSVKGRFTISRDNAKNTVYLQMNSLKPEDTAVYYCAAYWRSRNRFYWGQGTQVTVSS | high polyreactivity
QVQLVESGGGLVQAGGSLRLSCAASGRIYAMGWYRQAPGKERELVAAISRGGSTYYADSVKGRFTISRDNAKNTVYLQMNSLKPEDTAVYYCARRYASTGYDYWGQGTQVTVSS | high polyreactivity
QVQLVESGGGLVQAGGSLRLSCAASGRIYGPNAMGWYRQAPGKERELVAAISTSGGSTYYADSVKGRFTISRDNAKNTVYLQMNSLKPEDTAVYYCNVVHRGSWYYFWGQGTQVTVSS | high polyreactivity
QVQLVESGGGLVQAGGSLRLSCAASGRIYLKYTMGWYRQAPGKEREMVAAISRGGSTYYADSVKGRFTISRDNAKNTVYLQMNSLKPEDTAVYYCAATSYRRTGYNYWGQGTQVTVSS | high polyreactivity
QVQLVESGGGLVQAGGSLRLSCAASGRIYRYAIGWYRQAPGKERELVASISYSGGSTYYADSVNGRFTISRDNAKNTVYLQMNSLKPEDTAVYYCAARTRHVHYGDWGQGTQVTVSS | high polyreactivity
QVQLVESGGGLVQAGGSLRLSCAASGRIYSRYAMGWYRQAPGKERELVAAISASGGSTYYADSVKGRFTISRDNAKNTVYLQMNSLKPEDTAVYYCNAYQTSTPLFPGYGYWGQGTQVTVSS | low polyreactivity
QVQLVESGGGLVQAGGSLRLSCAASGRIYSYYARGWYRPAPGKERELVAAISRTGGTTYYADSVKGRFTISRDNAKNTVYLQMNSLKPEDTAVYYCAASGGYRPHRYQIGDYDYWGQGTQVTVSS | high polyreactivity
QVQLVESGGGLVQAGGSLRLSCAASGRIYVTNAMGWYRQAPGKERELVASISSGGRTHYADSVKGRFTISRDNAKNTVYLQMNSLKPEDTAVYYCAKPPLYYYPDLRGEEFYYWGQGTQVTVSS | low polyreactivity
QVQLVESGGGLVQAGGSLRLSCAASGRIYYPYAMGWYRQAPGKERELVASINYRGGSTYYADSVKGRFTISRDNAKNTVYLQMNSLKPEDTAVYYCAARFYWKYWRYDYWGQGTQVTVSS | high polyreactivity
QVQLVESGGGLVQAGGSLRLSCAASGRLCGIYTMGWYRQAPGKERELVAAISKRGSSTSYADSVKGRFTISRDNAKNTVYLQMNSQKPEDTAVYYCAARYGYSYRYSGFDYWGQGTQVTVSS | high polyreactivity
QVQLVESGGGLVQAGGSLRLSCAASGRLFHPYAMGWYRQAPGKERELVARITTSGGSTSYADSVKGRFTISRDNAKNTVYLQMNSLKPEDTAVYYSAADRARYYSEYDYWGQGTQVTVSS | low polyreactivity
QVQLVESGGGLVQAGGSLRLSCAASGRLFKSYAMGWYRQAPGKERELVAAIRSGGSTYYADSVKGRFTISRDNAKNTVYLQMISLKPEDTAVYYCNRVTRTWTVTYHYWGQGTQVTVSS | high polyreactivity
QVQLVESGGGLVQAGGSLRLSCAASGRLFYLNAMGWYRQAPGKERDLVAAISGSTGSTYYADSVKGRITISRDNAMNPVYLHMTSLKPVDTAVYYSNAGGVYVEFNYWGQGTQVTVSS | low polyreactivity
QVQLVESGGGLVQAGGSLRLSCAASGRMFTHNVMGWYRQAPGKERELVAAISASGGSTYYADSVKGRFTISRDNAKNTVYLQMNSLKPEDTAVYYCNAGDYRTFYRRFDYWGQGTQVTVSS | low polyreactivity
QVQLVESGGGLVQAGGSLRLSCAASGRMIKYNTMGWYRQAPGKERELVAAISLSSGSGGGTRYADSVKGRFKISRDNAKNTVYLQMNSLKPEDTAVYYCAARHRYTNEYDYWGQGTQVTVSS | low polyreactivity
QVQLVESGGGLVQAGGSLRLSCAASGRNFDGYAMGWYRQAPGKERQLVAAISGGGNTKYADSVKGRFTISRDNAKNTVYLKMISLKPEDTAVYYCAARGYYYGYRFDSWGQGTQVTVSS | high polyreactivity
QVQLVESGGGLVQAGGSLRLSCAASGRNFGAYAMGWYRPAPGKERELVAAITTAGSTHYADSVKGRFTISRDNAKNTVYLQMKSLKPQDTAVYYCAADGIARSYVLFDAYDFLYDYWGQGTQVTVSS | low polyreactivity
QVQLVESGGGLVQAGGSLRLSCAASGRNFGSYAMGWSRQAPGKERELVAGIRSVGSTNYADSVKGRFTISRDNAKNTVYLQMNSLKPEDTAVYYCAARLWHLSYAGQGGDYWGQGTQVTVSS | low polyreactivity
QVQLVESGGGLVQAGGSLRLSCAASGRNFHNYAMGWYRQATRKERELVAGISSRGGSTYYADSVKGRFTISRVNAKNTVYLQMNSLKPEVTAVYYCAKDKSPYGYATNQYRKYYYWGQGTQVTVSS | low polyreactivity
QVQLVESGGGLVQAGGSLRLSCAASGRNFKQYAMGWYRQAHGKERELVAAISVRGGITYYADSVKGRFTISRDNAKNTVYLQMNSLKPEVTGVYYCAKRSYRTHTYDYWGQGTQVTVSS | low polyreactivity
QVQLVESGGGLVQAGGSLRLSCAASGRNFLYNAMGWYRQAPGKERELVAAISGGSTNYADSVKGRFTISRDNAKNTVYLQMHSLKPEDTAVYYCAARYLRRYNWGQGTQVSVSS | high polyreactivity

Sequence | polyreactivity (PSR sort gate)
QVQLVESGGGLVQAGGSLRLSCAASGRNFNQYGMGRYIPAPGKERELVAAIRSGDSTNYADSVKGRFTISRDNAKNTVYLQMNSLKPEDTAVYYCARDRPGDYAGYDYWGQGTQVNVSS | low polyreactivity
QVQLVESGGGLVQAGGSLRLSCAASGRNFNSYAMGWYRQAPGKERELVAAISWNGGSTYYADSVKGRFTISRDNAKITVYLQMNSLKPEDTAVYYCAATYLLRGDAYYSWGQGTQVTVSS | high polyreactivity
QVQLVESGGGLVQAGGSLRLSCAASGRNFPAYAMGWYRQAPGKERELVASIRRGGITYADSVKGRFTISRDNAKNTVYLQMNRLKPEDSSGYFCNADFRGWGYHMDYWGQGTQVTVSS | low polyreactivity
QVQLVESGGGLVQAGGSLRLSCAASGRNFPYYAMGWYRQAPGKEMELVAAITRGVRTHYADSVKGRFTISRDNAKNTVYLQMNSLKPEDTAVYYCAREDWGSYSDMDSWGQGTQVTVSS | low polyreactivity
QVQLVESGGGLVQAGGSLRLSCAASGRNFPYYAMGWYRQAPGKERELVATISSGGITNYADSVKGRFTISRDNAKNTVYLELNSLKPEDTAVYYCAADRHWSAGLWRYDYWGQGTQVTVSS | high polyreactivity
QVQLVESGGGLVQAGGSLRLSCAASGRNFQVYAMGWYRQAPGKERELVAAISFSGDRTYYADSVKGRFTISRDNAKNTVYLQMNSLKPEDTAVYYCSADGFVYDLRARPGWVDYWGQGTQVTVSS | low polyreactivity
QVQLVESGGGLVQAGGSLRLSCAASGRNFRSYAMGWYRQAPGKERELVAAIRRGGSTNYADSVKGRFTISRDNAKNTVYLQMNSLNPEDTAVYYCAARGWSYRSVGYMDYWGQGTQVTVSS | high polyreactivity
QVQLVESGGGLVQAGGSLRLSCAASGRNFSDYAMGWSRQAPGKERELVATITSGDSTNYADSVKGRFTISRDNAKNTVYLQMNSLKPEDTAVYYCNADRFADYDYWGQGTQVTVSS | low polyreactivity
QVQLVESGGGLVQAGGSLRLSCAASGRNFSLYAMGWYRQAPGKERELVAAISWSGGNTYYADSVKGRFTISRDNAKNTVYLQMNSLKPEDTAVYYCNTVSYRGDWNPSKYYYWGQGTQVTLSS | high polyreactivity
QVQLVESGGGLVQAGGSLRLSCAASGRNFSWNAMGWYRQAPGKERELVAAISRGASTNYADSVKGRFTISRDNAKNTDYLQMNSLKPEDTAVYYCNAVGPSLIYTYELSPTFDYWGQGTQVTVSS | low polyreactivity
QVQLVESGGGLVQAGGSLRLSCAASGRNFTSNTMGWYRQAPGTETELVAAITSSGGSMYYADSVKGRFTISRDNAKNTVYLQMNSLKPEDTAVYYCAADTIGYHYWYDYWGQGTQVTVSS | low polyreactivity
QVQLVESGGGLVQAGGSLRLSCAASGRNFWDYAMGWYRQAPGKERELVAGISYSGGSTSYADSVKGRFTISRDNAKNTVYLQMNSLKPEDTAVYYCAAGPSGTFFRDYDYWGQGTQVTVSS | low polyreactivity
QVQLVESGGGLVQAGGSLRLSCAASGRNFYAYAMGWYRQAPGKERELVAGITYSGSSTYYADSVKGRFTISRDNAKNTVYLQMNSLKPEDTAVYYCAADLTRVLRYNYWGQGTQVTVSS | low polyreactivity
QVQLVESGGGLVQAGGSLRLSCAASGRNFYQYGMGWYREAPGKERELVAAISDSGGGTYYADSVKGRFTISGDNAKNTVYLQMNSLKPEDSAVYYCAATYVGPRRRYYYWGQGTQVTVSS | high polyreactivity
QVQLVESGGGLVQAGGSLRLSCAASGRNISYNAMGWSRQAPGKERELVAAISWGGGSTYYADSVKGRFTISRDNAKNTVYLQMNSLKPEDTAVYYCAKGWYRIKRNDYWGQGTQVTVSS | low polyreactivity
QVQLVESGGGLVQAGGSLRLSCAASGRNLGYNAMGWYRQAPGKERELVAAISWSGGSTYYADSVKGRFTISRDNAKNTVYLQMNSLKPEDTAVYYCAARNNRYPLYNYWGQGTQVTVSS | low polyreactivity
QVQLVESGGGLVQAGGSLRLSCAASGRNPMGWYRQAPGKDRELVASISRTGGSTYYADSVKGRFTISRDNAKNTDYLQMNSLKPEDTAVYYCNYFRRPPMYYWGQGTQVTVSS | high polyreactivity
QVQLVESGGGLVQAGGSLRLSCAASGRPFDFYAMGLYRQAPGKERELVADISTGGSTYYADSVKGRFTISRDNAKNTVYLQMNSLKPEDTAVYYCAAVGQDYYKVRYYYWGQGTQVTVSS | low polyreactivity
QVQLVESGGGLVQAGGSLRLSCAASGRPFHRNAMGWYRPAPGKERELVAAITGDGRTNYADSVKGRFTLSRDNAKNTVYLQMNSLKPEDTAFYYCAAEAVWFVGQAFDISDSTTYGFWGQGTQVTVSS | low polyreactivity
QVQLVESGGGLVQAGGSLRLSCAASGRPFSGYAMGWYRQAPGKERELVAAITSSGSSTYYADSVKGRFTISRDNAKNTVYLQMNSLKPEDTAVFYCAATPQAHSERYYYQRKYDYWGQGTQVTVSS | low polyreactivity
QVQLVESGGGLVQAGGSLRLSCAASGRPFTWYALGWYRQAPGKEREVVAAISKSGGSTYYADSVKGRFTISRDNAKNTVYLQMNSLKPEDTAVYYCNADFYGYFLGYGYCGQGTQVTVSS | low polyreactivity
